{"source": "patent US11464871B2", "about": "“Methods and systems for polymer precipitation and generation of particles” (priority 2012, dated 2022)", "experiment": "Physical stability and re-dispersion of chilled-acetone precipitated polymer conjugate particles", "type": "physicochemical", "description": "A 600 mL beaker of 300 mL of acetone with magnetic stir bar was pre-chilled to −78° C. in a dry ice/acetone bath. A solution of polymer conjugate HG6 (2 grams), obtained without further preparation from Example 3, was added dropwise over a 4 minute period into the beaker with chilled acetone with stirring and maintained in the dry ice/acetone bath. Individual free flowing polymer particles (resembling chards or flakes) were formed (FIG. 3) and remained in suspension under stirring conditions. After 25 minutes, the chilled acetone was decanted and replaced with fresh pre-chilled acetone (300 mL at −78° C.) and stirred for an additional 30 minutes to afford a suspension of polymer particles in chilled acetone.\nFrom the polymer particles/chilled acetone suspension further steps were conducted. First, a portion of polymer particles (still in acetone) was removed from the suspension and allowed to dry at room temperature. […] A second portion of polymer particles (still in acetone) was removed from the suspension and frozen in liquid nitrogen (N2) and lyophilized for 24 hours.", "data": [{"substance": "Poly(CDDCys-PA-PEG)-Gly-CPT [HG6]", "values": [{"measurement": "Re-dispersion of lyophilized polymer particles in water", "setting": "frozen in liquid N2, lyophilized 24 hours, water, even after 24 hours and sonication", "value": "did not re-disperse in water"}, {"measurement": "Physical stability of lyophilized polymer particles in ambient environment", "setting": "lyophilized particles exposed to the ambient environment", "value": "melted into yellow oil"}, {"measurement": "Re-dispersion of lyophilized polymer particles with acetone", "setting": "lyophilized particles, with addition of acetone", "value": "re-dispersion was successful"}, {"measurement": "Physical stability of precipitated polymer particles allowed to dry", "setting": "portion removed from acetone suspension, dried at room temperature", "value": "melted into yellow oil"}, {"measurement": "Physical stability of polymer particle suspension in acetone", "setting": "still in acetone, warmed to room temperature for 72 hours", "value": "remained a stable free flowing suspension"}]}]}
